System: Escherichia coli TOP10
Assay: shrunken log2 fold change of peptide-encoding DNA abundance (4.5 h post-induction vs induction); higher = less antimicrobial activity (less host growth inhibition)
Conditions: time post-induction: 4.5 h; library: site-saturation at positions 5, 18, 19, 20
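Note: peptides expressed intracellularly from a pBAD plasmid library in pooled LB shake-flask culture, induced with 0.3% L-arabinose, DNA abundance read by NGS, three biological replicates, DESeq2 with apeglm shrinkage.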

Row | Sequence | shrunken log2 fold change
1 | RRIRRRPPRLPRPRPRPMNWPRP | 0.291
2 | RRIRGRPPRLPRPRPRPHGQPRP | 0.578
3 | RRIRMRPPRLPRPRPRPCSQPRP | -0.00549
4 | RRIRVRPPRLPRPRPRPHASPRP | -0.15
5 | RRIRFRPPRLPRPRPRPHATPRP | -0.0624
6 | RRIRDRPPRLPRPRPRPMFEPRP | 0.0172
7 | RRIRIRPPRLPRPRPRPINHPRP | -0.683
8 | RRIRHRPPRLPRPRPRPKPDPRP | 0.0401
9 | RRIRGRPPRLPRPRPRPRTAPRP | 1.12
10 | RRIRHRPPRLPRPRPRPSVNPRP | -0.0443
11 | RRIRGRPPRLPRPRPRPEKVPRP | 0.417
12 | RRIRKRPPRLPRPRPRPGAHPRP | 0.663
13 | RRIRFRPPRLPRPRPRPMHEPRP | 0.085
14 | RRIRDRPPRLPRPRPRPKNKPRP | -0.314
15 | RRIRYRPPRLPRPRPRPTWFPRP | -0.351
16 | RRIRCRPPRLPRPRPRPEGSPRP | -0.043
17 | RRIRLRPPRLPRPRPRPEVSPRP | 0.254
18 | RRIRSRPPRLPRPRPRPTPCPRP | 0.254
19 | RRIRVRPPRLPRPRPRPGYCPRP | -0.307
20 | RRIRLRPPRLPRPRPRPNRMPRP | 1.82
21 | RRIRARPPRLPRPRPRPRYWPRP | 0.213
22 | RRIRMRPPRLPRPRPRPRYAPRP | 0.467
23 | RRIRKRPPRLPRPRPRPTIWPRP | 0.319
24 | RRIRNRPPRLPRPRPRPTFYPRP | -0.376
25 | RRIRKRPPRLPRPRPRPMGTPRP | 0.335

Row | Sequence | shrunken log2 fold change
26 | RRIRWRPPRLPRPRPRPSKAPRP | -0.287
27 | RRIRSRPPRLPRPRPRPRSKPRP | 0.0951
28 | RRIRSRPPRLPRPRPRPRIFPRP | 0.206
29 | RRIRWRPPRLPRPRPRPLCVPRP | 0.0447
30 | RRIRFRPPRLPRPRPRPMAVPRP | -0.0113
31 | RRIRHRPPRLPRPRPRPVCPPRP | -0.0334
32 | RRIRERPPRLPRPRPRPHFCPRP | -0.117
33 | RRIRTRPPRLPRPRPRPITPPRP | -0.237
34 | RRIRYRPPRLPRPRPRPCEPPRP | 0.0986
35 | RRIRSRPPRLPRPRPRPLMAPRP | 0.000235
36 | RRIRFRPPRLPRPRPRPYARPRP | 0.0368
37 | RRIRARPPRLPRPRPRPTWYPRP | -0.00985
38 | RRIRERPPRLPRPRPRPSYTPRP | -0.181
39 | RRIRYRPPRLPRPRPRPSQVPRP | -0.518
40 | RRIRQRPPRLPRPRPRPKPKPRP | 0.278
41 | RRIRQRPPRLPRPRPRPLFCPRP | 0.213
42 | RRIRMRPPRLPRPRPRPCFRPRP | 0.123
43 | RRIRYRPPRLPRPRPRPELQPRP | 0.0344
44 | RRIRHRPPRLPRPRPRPIKPPRP | -0.236
45 | RRIRMRPPRLPRPRPRPHHVPRP | -0.143
46 | RRIRLRPPRLPRPRPRPREFPRP | 0.463
47 | RRIRARPPRLPRPRPRPISMPRP | 0.0208
48 | RRIRCRPPRLPRPRPRPPKPPRP | 0.692
49 | RRIRKRPPRLPRPRPRPAMLPRP | 0.292
50 | RRIRFRPPRLPRPRPRPMRLPRP | 0.947

Row | Sequence | shrunken log2 fold change
51 | RRIRPRPPRLPRPRPRPNNYPRP | -0.0307
52 | RRIRCRPPRLPRPRPRPIVGPRP | -0.477
53 | RRIRYRPPRLPRPRPRPCCFPRP | -0.709
54 | RRIRHRPPRLPRPRPRPTFDPRP | 0.0575
55 | RRIRMRPPRLPRPRPRPFHIPRP | -0.269
56 | RRIRVRPPRLPRPRPRPPNFPRP | 0.0102
57 | RRIRDRPPRLPRPRPRPTNQPRP | -0.00895
58 | RRIRSRPPRLPRPRPRPEESPRP | -0.048
59 | RRIRNRPPRLPRPRPRPQQEPRP | -0.124
60 | RRIRSRPPRLPRPRPRPWRCPRP | 0.0757
61 | RRIRCRPPRLPRPRPRPLPAPRP | 0.574
62 | RRIRWRPPRLPRPRPRPTKHPRP | -0.118
63 | RRIRQRPPRLPRPRPRPNFAPRP | 0.24
64 | RRIRFRPPRLPRPRPRPHIHPRP | -1.17
65 | RRIRCRPPRLPRPRPRPMMMPRP | 2.91
66 | RRIRFRPPRLPRPRPRPLMSPRP | -0.0355
67 | RRIRSRPPRLPRPRPRPVLLPRP | -0.315
68 | RRIRDRPPRLPRPRPRPASIPRP | 0.0781
69 | RRIRMRPPRLPRPRPRPLPNPRP | 0.098
70 | RRIRSRPPRLPRPRPRPEHDPRP | -0.128
71 | RRIRFRPPRLPRPRPRPCFWPRP | 0.0499
72 | RRIRHRPPRLPRPRPRPYPMPRP | -0.2
73 | RRIRARPPRLPRPRPRPDKPPRP | 0.865
74 | RRIRRRPPRLPRPRPRPNHLPRP | -0.394
75 | RRIRARPPRLPRPRPRPFMIPRP | -0.1

Row | Sequence | shrunken log2 fold change
76 | RRIRPRPPRLPRPRPRPHGQPRP | 0.186
77 | RRIRPRPPRLPRPRPRPDPYPRP | 0.0668
78 | RRIRGRPPRLPRPRPRPRASPRP | 1.05
79 | RRIRCRPPRLPRPRPRPHDMPRP | -0.234
80 | RRIRMRPPRLPRPRPRPKCEPRP | 0.52
81 | RRIRERPPRLPRPRPRPCVSPRP | -0.0843
82 | RRIRHRPPRLPRPRPRPPGIPRP | 0.142
83 | RRIRDRPPRLPRPRPRPQVWPRP | 0.0447
84 | RRIRHRPPRLPRPRPRPFYGPRP | -0.0135
85 | RRIRARPPRLPRPRPRPTYPPRP | -0.0587
86 | RRIRCRPPRLPRPRPRPMKFPRP | -0.0717
87 | RRIRMRPPRLPRPRPRPLMTPRP | 1.3
88 | RRIRGRPPRLPRPRPRPPGTPRP | 0.982
89 | RRIRFRPPRLPRPRPRPMSGPRP | -0.0751
90 | RRIRSRPPRLPRPRPRPHPEPRP | 0.316
91 | RRIRVRPPRLPRPRPRPLAYPRP | 0.0656
92 | RRIRSRPPRLPRPRPRPVLIPRP | -0.000674
93 | RRIRRRPPRLPRPRPRPISCPRP | 0.00341
94 | RRIRCRPPRLPRPRPRPASVPRP | 0.176
95 | RRIRARPPRLPRPRPRPSMCPRP | -0.081
96 | RRIRPRPPRLPRPRPRPRASPRP | 0.548
97 | RRIRSRPPRLPRPRPRPKADPRP | 0.572
98 | RRIRKRPPRLPRPRPRPCQKPRP | -0.0405
99 | RRIRNRPPRLPRPRPRPQHWPRP | 0.13
100 | RRIRFRPPRLPRPRPRPAMSPRP | -0.302

Row | Sequence | shrunken log2 fold change
101 | RRIRKRPPRLPRPRPRPCHMPRP | -0.538
102 | RRIRDRPPRLPRPRPRPMCLPRP | 0.131
103 | RRIRLRPPRLPRPRPRPAWTPRP | 0.218
104 | RRIRIRPPRLPRPRPRPSMDPRP | -0.353
105 | RRIRSRPPRLPRPRPRPPGEPRP | 0.756
106 | RRIRRRPPRLPRPRPRPCRFPRP | -0.0495
107 | RRIRNRPPRLPRPRPRPVMEPRP | -0.173
108 | RRIRERPPRLPRPRPRPMAMPRP | 0.0346
109 | RRIRIRPPRLPRPRPRPPKTPRP | -0.00537
110 | RRIRTRPPRLPRPRPRPRDQPRP | 0.224
111 | RRIRYRPPRLPRPRPRPCSLPRP | 0.0201
112 | RRIRQRPPRLPRPRPRPIHFPRP | -0.236
113 | RRIRLRPPRLPRPRPRPNYDPRP | -0.372
114 | RRIRFRPPRLPRPRPRPSLLPRP | -0.311
115 | RRIRFRPPRLPRPRPRPEAWPRP | 0.00383
116 | RRIRQRPPRLPRPRPRPQVHPRP | 0.0124
117 | RRIRKRPPRLPRPRPRPVKPPRP | 0.0508
118 | RRIRHRPPRLPRPRPRPMIAPRP | -0.0185
119 | RRIRPRPPRLPRPRPRPMHAPRP | 0.159
120 | RRIRLRPPRLPRPRPRPHQVPRP | 0.00465
121 | RRIRFRPPRLPRPRPRPHQMPRP | -0.037
122 | RRIRSRPPRLPRPRPRPRMKPRP | -0.0423
123 | RRIRYRPPRLPRPRPRPCSIPRP | -0.0204
124 | RRIRCRPPRLPRPRPRPGRRPRP | 1.11
125 | RRIRSRPPRLPRPRPRPKMMPRP | -0.214

Row | Sequence | shrunken log2 fold change
126 | RRIRYRPPRLPRPRPRPQCMPRP | -0.931
127 | RRIRWRPPRLPRPRPRPPQEPRP | 0.567
128 | RRIRERPPRLPRPRPRPVILPRP | -0.388
129 | RRIRFRPPRLPRPRPRPSWNPRP | -0.575
130 | RRIRTRPPRLPRPRPRPAGGPRP | 0.304
131 | RRIRARPPRLPRPRPRPIPTPRP | -0.0942
132 | RRIRDRPPRLPRPRPRPRTDPRP | 0.0936
133 | RRIRTRPPRLPRPRPRPLDMPRP | -0.247
134 | RRIRQRPPRLPRPRPRPNRAPRP | 0.025
135 | RRIRQRPPRLPRPRPRPVSLPRP | -0.131
136 | RRIRTRPPRLPRPRPRPGMSPRP | -0.352
137 | RRIRVRPPRLPRPRPRPAHEPRP | 0.205
138 | RRIRSRPPRLPRPRPRPKKPPRP | 0.0165
139 | RRIRKRPPRLPRPRPRPSIEPRP | 0.0829
140 | RRIRARPPRLPRPRPRPMWYPRP | -0.0479
141 | RRIRHRPPRLPRPRPRPWRNPRP | 0.00611
142 | RRIRYRPPRLPRPRPRPKLWPRP | 0.64
143 | RRIRTRPPRLPRPRPRPVAWPRP | 0.217
144 | RRIRIRPPRLPRPRPRPMENPRP | 0.0119
145 | RRIRWRPPRLPRPRPRPPMHPRP | 0.429
146 | RRIRYRPPRLPRPRPRPRCEPRP | 0.076
147 | RRIRPRPPRLPRPRPRPYTIPRP | 0.00679
148 | RRIRERPPRLPRPRPRPYSQPRP | -0.443
149 | RRIRWRPPRLPRPRPRPNCEPRP | 0.0915
150 | RRIRDRPPRLPRPRPRPIGRPRP | 0.00739
